For assay [1], the target named is T1, human CD40-His protein (human, UniProt P25942 21-193).
T1 construct: His-tagged recombinant protein; also called human CD40-his tag; recombinant CD40 protein
As to the kind of experiment: ELISA, plate-coated human CD40-His. On the procedure: (§1) To evaluate the binding activity of clones 42p155, 2p834, 2p931, 42p655, 2p1294, 2p957, 42p495, 3p78, 2p415, 2p442, 2p551, 2p80 and 2p1130, the chimeric monospecific antibody (mAb) from these clones were subjected to ELISA test, along with selicrelumab, the clinical benchmark anti-CD40 agonist antibodies.
(§2) Briefly, microtiter plates were coated with human CD40-His protein at 1.0 μg/ml in PBS, 100 μl/well at 4° C. overnight, then blocked with 150 µl/well of 1% BSA. Ten-fold dilutions of 42p155, 2p834, 2p931, 42p655, 2p1294, 2p957, 42p495, 3p78, 2p415, 2p442, 2p551, 2p80 and 2p1130 antibodies starting from 100 nM were added to each well and incubated for 1 hour at RT. The plates were washed with PBS/Tween and then incubated with Anti-Human IgG (H&L) (GOAT) Antibody Peroxidase Conjugated for 30 mins at RT. After washing, the plates were developed with TMB substrate and analyzed by spectrophotometer at OD 450 nm.

The target in assay [2] is T1, human CD40-His protein. Description: SPR Biacore T200, antibody captured on Protein A, CD40-His as analyte. The procedure: Bispecific antibodies with each of the 42p155, 2p834, 2p931, 42p655, 2p1294, 2p957, 42p495, 3p78, 2p415, 2p442, 2p551 and 2p1130 clones, as well as 2p80 monospecific antibody, were captured using Protein A chip. A serial dilution of human CD40-his tag protein was injected over captured antibody for 2 mins at a flow rate of 30 μl/min. The antigen was allowed to dissociate for 6 min. All the experiments were carried out on a Biacore T200. Data analysis was carried out using the Biacore T200 evaluation software.

For a further assay, the target named is T2, human OX40 protein (human, UniProt P43489 29-216, limits assumed).
T2 sequence (looked up): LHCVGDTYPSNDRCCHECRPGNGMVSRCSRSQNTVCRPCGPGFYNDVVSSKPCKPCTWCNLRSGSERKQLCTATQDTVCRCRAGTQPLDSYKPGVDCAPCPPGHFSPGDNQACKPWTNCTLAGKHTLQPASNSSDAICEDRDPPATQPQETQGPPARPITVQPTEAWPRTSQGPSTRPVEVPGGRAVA
As to the kind of experiment: ELISA, plate-coated protein. The procedure:
(§3) To evaluate the cross reactivity of chimeric anti-CD40 antibodies to other family members of TNF receptors, the ELISA binding towards human 4-1BB and human OX40 were performed.
as §2, with “4-1BB protein or human OX40” for “CD40-His”, “1” for “1.0”, “μl/well” for “µl/well”

The target of another assay is T3, human 4-1BB protein (human, UniProt Q07011 24-186).
T3 construct: also called 4-IBB
Description: ELISA, plate-coated protein. The procedure:
as §3
as §2, with “4-1BB protein or human OX40” for “CD40-His”, “1” for “1.0”, “μl/well” for “µl/well”
Background: An ELISA detects its analyte on a solid surface through an enzyme-linked reagent.

The target of assay [3] is T4, human CD40 on the cell surface (human, UniProt P25942 21-277). As to the kind of experiment: cell-based or functional assay.
T4 sequence (P25942 21-277): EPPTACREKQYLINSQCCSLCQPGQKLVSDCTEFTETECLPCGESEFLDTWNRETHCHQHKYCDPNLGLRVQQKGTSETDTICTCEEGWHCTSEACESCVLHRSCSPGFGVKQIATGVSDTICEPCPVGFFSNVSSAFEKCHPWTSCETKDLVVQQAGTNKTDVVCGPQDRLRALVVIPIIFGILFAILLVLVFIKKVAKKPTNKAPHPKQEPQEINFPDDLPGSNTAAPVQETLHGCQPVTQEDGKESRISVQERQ
For assay [4], the target named is T5, cynomolgus CD40-His protein (cynomolgus, UniProt G7PG38 21-193).
T5 construct: His-tagged recombinant protein; also called cyno CD40 antigen
As to the kind of experiment: ELISA, plate-coated cynomolgus CD40-His. The procedure: as §1
as §2, with “The binding affinity of these clones to cynomolgus CD40 was also tested. Microtiter” for “Briefly, microtiter”, “cynomolgus” for “human”, “µl/well” for “μl/well”, “nm. As shown in FIG. 1B and Table 2, all these clones bound to cynomolgus CD40 at high activity, showing good cross-reactivity between human and cynomolgus CD40 proteins.” for “nm.”

The target in assay [5] is T4, human CD40 on the cell surface. Description: FACS, human dendritic cells, MFI. Background: A flow cytometer gives signals particle by particle.
Assay [6] has the same target. Description: FACS, Jurkat cells overexpressing human CD40, PE anti-human IgG, MFI. On the procedure:
To evaluate the binding affinity of 5T4-CD40 bispecific antibodies to cell surface CD40, bispecific antibodies with formats of b 1 (42p155z2), b12 (42p155z2), b13 (42p155z2), b16 (42p155z2), b17 (42p155z2) and b18 (2p1130) were tested in Jurkat cell lines that overexpressed CD40 by FACS. A total number of 1×10⁵ Jurkat-CD40 cells in each well were incubated with 5-fold serially diluted antibodies starting from 100 nM for 30 minutes at 4° C. in FACS buffer. After wash by FACS buffer, PE conjugated-anti-human IgG antibody was added to each well and incubated at 4° C. for 30 minutes. After wash, MFI of PE was evaluated by MACSQuant Analyzer 16.

T1 sequence (P25942 21-193 limits assumed): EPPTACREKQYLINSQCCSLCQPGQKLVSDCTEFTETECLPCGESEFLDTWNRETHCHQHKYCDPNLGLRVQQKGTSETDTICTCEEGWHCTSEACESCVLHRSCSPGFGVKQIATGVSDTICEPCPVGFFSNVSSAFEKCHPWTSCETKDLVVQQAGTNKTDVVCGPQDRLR

B1: 2p80 chimeric monospecific antibody (antibody, V domains shown)
VH: QLQLVESGGGLVQAGGSLRLSCAASGRIFSSYAMSWFRQAPGKEREFVATIGWIGENTYYADSVKGRFTISRDNAKNTLYLQMNSLKPEDTAVYYCAAGLPANRYYDYWGQGTQVTVSS
notes: Chimeric monospecific antibody; also called 2p80 cAb
By EC50 is commonly meant the concentration that produces a half-maximal response. Low values mean a more potent agent, high ones a less potent agent. What is called Kd is the free concentration of one partner at which half of the binding sites on the other are occupied at equilibrium, for simple one-to-one binding. Higher therefore signals a looser complex. In general, koff refers to the rate constant with which the complex falls apart. The low end stands for slow dissociation, the high end for fast dissociation. In general, kon refers to the rate constant with which the complex forms. A higher kon goes with fast association. In turn, B1 returned a 50% effective concentration (EC50) with human CD40-His protein [1] of 3.08 nM. In the assay with human CD40-His protein [2], this molecule displayed an equilibrium dissociation constant (Kd) of 213 nM, a koff of 0.000293 s⁻¹ and a kon of 1380 M⁻¹ s⁻¹. In the assay with human OX40 protein, the binding result is listed as “no binding (tested: 100 nM (highest concentration))”. Also, the binding result with human 4-1BB protein is reported as “no binding (tested: 100 nM (highest concentration))”. The “CD40 NF-κB luciferase reporter (Jurkat), RLU” value in assay [3] is greater than 10 nM. Besides, it took 8.29 nM to reach a half-maximal effect in assay [4] (EC50).

B2: b16 (42p155z2)-LALA humanized anti-5T4/CD40 bispecific antibody (bispecific antibody, human IgG1, kappa, L234A L235A)
heavy 1: QVQLVQSGAEVKKPGASVKVSCKASGYAFSSSWMNWVRQAPGQGLEWMGRIYREDGHTNYNGKFKGRVTMTADKSITTAYMELSRLRSDDTAVYYCANGGAMDYWGQGTLVTVSSASTKGPSVFPLAPSSKSTSGGTAALGCLVKDYFPEPVTVSWNSGALTSGVHTFPAVLQSSGLYSLSSVVTVPSSSLGTQTYICNVNHKPSNTKVDKKVEPKSCDKTHTCPPCPAPEAAGGPSVFLFPPKPKDTLMISRTPEVTCVVVDVSHEDPEVKFNWYVDGVEVHNAKTKPREEQYNSTYRVVSVLTVLHQDWLNGKEYKCKVSNKALPAPIEKTISKAKGQPREPQVCTLPPSREEMTKNQVSLSCAVKGFYPSDIAVEWESNGQPENNYKTTPPVLDSDGSFFLVSKLTVDKSRWQQGNVFSCSVMHEALHNHYTQKSLSLSPGK
light: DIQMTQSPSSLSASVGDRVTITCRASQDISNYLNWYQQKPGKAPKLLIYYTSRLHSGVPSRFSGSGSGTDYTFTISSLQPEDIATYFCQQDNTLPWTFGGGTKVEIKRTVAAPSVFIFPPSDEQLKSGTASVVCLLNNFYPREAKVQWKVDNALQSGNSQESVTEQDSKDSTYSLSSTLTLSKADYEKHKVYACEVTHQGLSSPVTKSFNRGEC
heavy 2: not shown
For orientation: EC50 (read off the curve) means the concentration needed to bring the measured effect to its halfway point. A low value points to higher potency in that assay. With B2, in assay [5], the “EC50 (read off the curve)” value was roughly 0.5 nM.

B3: b16 (42p155z2) anti-5T4/CD40 bispecific antibody (bispecific antibody, human IgG1, kappa, N297A)
heavy 1: EVQLQQSGPELVKPGASVKISCKASGYAFSSSWMNWVKQRPGKGLEWIGRIYREDGHTNYNGKFKGKATLTADKSSTTAYMQLTSLTSEDSAVYFCANGGAMDYWGQGTSVTVSSASTKGPSVFPLAPSSKSTSGGTAALGCLVKDYFPEPVTVSWNSGALTSGVHTFPAVLQSSGLYSLSSVVTVPSSSLGTQTYICNVNHKPSNTKVDKKVEPKSCDKTHTCPPCPAPELLGGPSVFLFPPKPKDTLMISRTPEVTCVVVDVSHEDPEVKFNWYVDGVEVHNAKTKPREEQYASTYRVVSVLTVLHQDWLNGKEYKCKVSNKALPAPIEKTISKAKGQPREPQVCTLPPSREEMTKNQVSLSCAVKGFYPSDIAVEWESNGQPENNYKTTPPVLDSDGSFFLVSKLTVDKSRWQQGNVFSCSVMHEALHNHYTQKSLSLSPGK
light: DIQMTQSTSSLSASLGDRVTISCRASQDISNYLNWYQQKPDGTVKLLIYYTSRLHSGVPSRFSGSGSGTDYSLTISNLEQEDIATYFCQQDNTLPWTFGGGTKLEIKRTVAAPSVFIFPPSDEQLKSGTASVVCLLNNFYPREAKVQWKVDNALQSGNSQESVTEQDSKDSTYSLSSTLTLSKADYEKHKVYACEVTHQGLSSPVTKSFNRGEC
heavy 2: not shown
notes: also called 1+2 b16 format; chimeric antibody b16 (42p155z2)
Regarding B3, the “EC50 (read off the curve)” value in assay [6] is roughly 0.5 nM; in assay [5], roughly 0.7 nM.

Values taken from US20240287208A1 (CONCEPT TO MEDICINE BIOTECH, published 2024).
